Read-outs that look alike come from different tables or passages of the source.

What is called Kd is the equilibrium constant for the complex coming apart. A high value points to a looser complex. For orientation: koff means the first-order rate constant of dissociation. The kon is the rate constant with which the complex forms. Read a high kon as fast association.

The target of assay [1] is Mycobacterium tuberculosis dUTPase mutant mDut H145F, His-tagged (Mycobacterium tuberculosis (strain H37Rv)) (UniProt P9WNS5). In words: BLI; […] (218.7 nM) […]; 28°C; 1:1 kinetic model.
Assay [2] has the same target. In words: BLI; […] (218.7 nM) […]; 28°C; 1:1 kinetic model. The source holds these as a separate data set. (In general: BLI is a label-free optical method that tracks binding on a fibre tip over time.)

Regarding “Stl^N-ter (SaPIbov1 Stl, N-terminal DNA-binding domain and middle domain, residues 1 to 156) (domain or fragment)”, the Kd in assay [1] is 12.4 nM. Moreover, in assay [2], the Kd came to 12.5 nM, the koff is 0.00483 s⁻¹ and the on-rate constant (kon) came out at 388000 M⁻¹ s⁻¹.
